Common to all, as to assay: cell-based or functional assay
The target in experiment [1] is recombinant human CCL20 (human) (UniProt P78556).
The target of experiment [2] is recombinant mouse CCL20 (mouse) (UniProt O89093).
Experiment [3] addresses human CCR6 (human) (UniProt P51684).
UniProt P51684, sequence (P51684 whole entry): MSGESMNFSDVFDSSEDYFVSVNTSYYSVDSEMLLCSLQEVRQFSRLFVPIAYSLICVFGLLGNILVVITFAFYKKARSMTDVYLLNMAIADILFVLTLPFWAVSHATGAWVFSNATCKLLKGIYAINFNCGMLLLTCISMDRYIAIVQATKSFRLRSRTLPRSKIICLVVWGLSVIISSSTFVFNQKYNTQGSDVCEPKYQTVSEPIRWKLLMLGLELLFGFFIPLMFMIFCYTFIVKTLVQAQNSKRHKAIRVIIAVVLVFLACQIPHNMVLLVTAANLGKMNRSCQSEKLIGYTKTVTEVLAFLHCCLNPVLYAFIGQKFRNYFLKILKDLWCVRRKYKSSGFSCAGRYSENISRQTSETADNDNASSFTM

UniProt P78556, sequence (P78556 27-96 limits assumed): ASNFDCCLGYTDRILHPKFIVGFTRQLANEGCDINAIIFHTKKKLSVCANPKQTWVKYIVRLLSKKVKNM
UniProt O89093, sequence (O89093 28-97 limits assumed): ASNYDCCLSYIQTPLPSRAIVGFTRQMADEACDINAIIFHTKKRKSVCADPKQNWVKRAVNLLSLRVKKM

As to “neutralizing monoclonal antibody against human CCL20 (clone 67310; R&D Systems)”, in experiment [1], the IC50, beta-arrestin translocation assay (CHO-K1 cells overexpressing human CCR6, stimulated with 6 nM CCL20) came to 2.7 nM and the IC50, cAMP assay (Ad293 cells overexpressing human CCR6, stimulated with 1 nM CCL20) turned out to be 0.8 nM.

Regarding “anti-mouse CCL20 monoclonal antibody (clone 114908; R&D Systems)”, the IC50, beta-arrestin translocation assay (CHO-K1 cells overexpressing mouse CCR6, stimulated with 1.2 nM mouse CCL20) in experiment [2] was 14 nM.

“recombinant human CCL20 (from UniProt P78556 27-96) (ligand)”: the expression of NANOG, BMI1, OCT3/4 and SOX2 in CCR6+ against CCR6- NCIH508 cells after 48 hours with 100 pg/mL CCL20 in experiment [3] came out at 2 fold.

These data come from patent US20210380673A1.
